According to patent US20050100965A1:

Target: recombinant IL18 (YK27-1) (Homo sapiens (Human)) (UniProt Q14116)
Assay: cell-based or functional assay

IFN (interferon γ) transcript level, quantitative PCR, whole blood stimulated with IL18+IL12, donor1n (Unstimulated 0.002, Stimulated 0.339): 0.07 | IFN (interferon γ) transcript level, quantitative PCR, whole blood stimulated with IL18+IL12, donor 3n (Unstimulated 0.001, Stimulated 0.187): 0.026 | IFN (interferon γ) transcript level, quantitative PCR, whole blood stimulated with IL18+IL12, donor4n (Unstimulated 0.001, Stimulated 0.082): 0.027 | IFN (interferon γ) transcript level, quantitative PCR, whole blood stimulated with IL18+IL12, donor 5n (Unstimulated 0.003, Stimulated 0.012): 0.006 | IFN (interferon γ) transcript level, quantitative PCR, whole blood stimulated with IL18+IL12, donor6n (Unstimulated 0.002, Stimulated 0.076): 0.01 | IFN (interferon γ) transcript level, quantitative PCR, whole blood stimulated with IL18+IL12, donor7n (Unstimulated 0.002, Stimulated 0.049): 0.012 | IFN (interferon γ) transcript level, quantitative PCR, whole blood stimulated with IL18+IL12, donor8n (Unstimulated 0.002, Stimulated 0.049): 0.012 | IFN (interferon γ) transcript level, quantitative PCR, whole blood stimulated with IL18+IL12, donor 9n (Unstimulated 0.001, Stimulated 1.250): 0 | IFN (interferon γ) transcript level, quantitative PCR, whole blood stimulated with IL18+IL12, donor10n (Unstimulated 0.002, Stimulated 0.361): 0.002
B1: Murine anti-human IL-18 mAb (125-2H) (antibody, from another filing, V domains shown)
VH: EIQLQQSGPELVKPGASVKVSCKASGYSFTDYFIYWVKQSHGKSLEWIGDIDPYNGDTSYNQKFRDKATLTVDQSSTTAFMHLNSLTSEDSAVYFCARGLRFWGQGTLVTVSA
VL: DIQMTQSPSSLSASLGERVSLTCRASQDIGSKLYWLQQEPDGTFKRLIYATSSLDSGVPKRFSGSRSGSDYSLTISSLESEDFVDYYCLQYASSPYTFGGGTKLAIKR
